In publication PMC8922439:

Legend:
[1] = target: mRNA-expressed CH848 10.17DT SOSIPv4.1 trimer (HIV-1 (CH848 10.17)); assay: SEC
[2] = target: mRNA-expressed CH848 10.17DT DS SOSIP trimer (HIV-1 (CH848 10.17)); assay: SEC

“mRNA-expressed CH848 10.17DT SOSIPv4.1 trimer (domain or fragment)” was tested, and the stoichiometry N [1] was 3.
Substance “mRNA-expressed CH848 10.17DT DS SOSIP trimer (domain or fragment)” has a stoichiometry N [2] of 3.
